Data on 14 molecules can be found in patent US20240376189A1 (University of Pennsylvania, published 2024).

Assay [1] addresses T1, cynomolgus antigen (cynomolgus).
T1 construct: also called cyno antigen; cynomolgus monkey C5a
Kind of assay: SPR, scFv captured via anti-c-myc/anti-His, 60 nM cynomolgus antigen as analyte, 1:1 fit. As for the experimental part:
The activator was prepared by mixing 400 mM EDC (1-ethyl-3-(3-dimethylaminopropyl) carbodiimide) and 100 mM NHS (N-hydroxysuccinimide) (GE) immediately prior to injection. The CMS sensor chip was activated for 600 s with the mixture at a flow rate of 10 μL/min. Mixture of anti-c-myc and anti his antibodies in 10 mM NaAc (pH 4.5) was then injected to Fc1 and Fc2 of channel 1 to channel 8 for 600 seconds at a flow rate of 10 μL/min. The chip was deactivated by 1 M ethanolamine-HCl (GE) at a flow rate of 10 μL/min for 420 seconds.
The anti-C5a scFv was diluted to 0.5 μg/ml, the other samples were diluted to 2 μg/ml in running buffer 1×HBS-EP+ (0.01 M HEPES, 0.15 M NaCl, 0.003 M EDTA, 0.05% surfactant P20). […] Diluted TES buffer was injected into channel Fc1 at a flow rate of 10 μL/min for 40 s, diluted scFv was injected into channel Fc2 at a flow rate of 10 μL/min for 40 s. […] 10 mM glycine pH 1.5 as regeneration buffer was injected following every dissociation phase. The chip was regenerated with 10 mM glycine pH 1.5.
The sensorgrams for reference channel Fc1 and buffer channel were subtracted from the test sensorgrams. Data were fitted by 1:1 kinetic binding model. Molecular weight of 8.4 kDa was used to calculate the molar concentration of the cyno antigen.
For orientation: SPR reads the build-up and loss of mass on a sensor chip optically.

Assay [2] has as its target T2, human C5a (human, UniProt P01031 678-751, biotinylated in the U937/C5aR ligand blocking assay (site not stated)).
T2 construct: also called human antigen; huC5a
T2 sequence: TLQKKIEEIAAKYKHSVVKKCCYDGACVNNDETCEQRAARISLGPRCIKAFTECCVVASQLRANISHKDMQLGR
As to the kind of experiment: SPR, scFv captured via anti-c-myc/anti-His, 5 nM human antigen as analyte, 1:1 fit.

In assay [3] the target is T1, cynomolgus antigen. As to the kind of experiment: affinity-ranking ELISA: cynomolgus antigen coated on the plate, normalized scFv periplasmic extract in 3-fold dilutions from 100 nM, anti-c-myc-HRP, OD450. As for the experimental part: The affinity ranking ELISA was carried out as following: scFv concentrations in PEs were measured by Quantification ELISA using purified scFv sample as a standard. Briefly, anti-His-antibody (Genscript-A00186) were coated on the plates in coating buffer PBS at pH7.4 overnight at 4° C. The next day, plates were blocked with casein in PBS at pH7.4 for 1 hour at 25° C. ScFv containing PEs were diluted 3 fold serial dilutions and then added to the plates. A purified scFv standard sample with known concentration was used as a standard. After incubation at 25° C. for 1 hour and washing 3 times with PBS-T, anti-c-myc-HRP (Bethyl-A190-104P) was added to the wells followed by incubation for 1 hour at 25° C. HRP activity was detected with TMB substrate and the reaction was quenched with 2M HCl. Plates were read at 450 nm.
The next day, plates were blocked with casein in PBS for 1 hour at 25° C. Normalized scFv containing PEs were diluted using 3 fold serial dilutions starting at 100 nM, added to the plates and incubated at 25° C. for 1 hour. After washing, anti-c-myc-HRP was added to the wells followed by incubation for 1 hour at 25° C. HRP activity was detected with TMB substrate and the reaction was quenched with 2M HCl. Plates were read at 450 nm. Data were fitted into one-site binding equation using GraphPad Prism 5 software.
A general note: An ELISA detects its analyte on a solid surface through an enzyme-linked reagent.

B1: 13B7 (scFv, V domains shown)
VH: QVQLVQSGAEVKKPGSSVKVSCKASGYTFTDHIIHWMRQAPGQGLEWMGYIYPREGWTNYNENFKGRVTITADKSTSTAYMELSSLRSEDTAVYYCARERNLEYFDYWGQGTTVTVSS
VL: DIVLTQSPASLAVSPGQRATITCKASQSVDYEGFNYMNWYQQKPGQPPKLLIYAASNLDSGVPARFSGSGSGTDFTLTINPVEAEDTANYYCQQSVEDPHTFGGGTKVEIK
notes: Combination mutant scFv
The term koff denotes the rate constant with which the complex falls apart. A lower koff goes with a long-lived complex. By EC50 (read off the curve) is commonly meant the concentration at which the effect is half-maximal. Higher therefore signals weaker potency. In the case of B1, the dissociation rate constant (koff) in assay [1] was 0.000252 s⁻¹; in assay [2], below 1e-05 s⁻¹. Further, the “EC50 (read off the curve)” value in assay [3] is around 6 nM.

B2: 16F10 (scFv, V domains shown)
VH: QVQLVQSGAEVKKPGSSVKVSCKASGYTFTDHIIHWMRQAPGQGLEWMGYIYPREGWTNYNENFKGRVTITADKSTSTAYMELSSLRSEDTAVYYCARERNLEYFDYWGQGTTVTVSS
VL: DIVLTQSPASLAVSPGQRATITCKASQSVDFEGFNYMNWYQQKPGQPPKLLIYAASNLDSGVPARFSGSGSGTDFTLTINPVEAEDTANYYCQQSVEDPHTFGGGTKVEIK
notes: Combination mutant scFv
For the molecule B2, the koff in assay [1] was found to be 0.000155 s⁻¹; in assay [2], 1.14e-05 s⁻¹. Further, the “EC50 (read off the curve)” value in assay [3] is around 4 nM.

B3: 10F5 (scFv, V domains shown)
VH: QVQLVQSGAEVKKPGSSVKVSCKASGYTFTDHIIHWMRQAPGQGLEWMGYIYPREGWTNYNENFKGRVTITADKSTSTAYMELSSLRSEDTAVYYCARERNLEYFDYWGQGTTVTVSS
VL: DIVLTQSPASLAVSPGQRATITCKASQSVDYEGDNYMNWYQQKPGQPPKLLIYATSNLDSGVPARFSGSGSGTDFTLTINPVEAEDTANYYCQQSLEDPHTFGGGTKVEIK
notes: Combination mutant scFv
For B3, the results for the koff in assay [1] and in assay [2] were 0.00202 s⁻¹ and below 1e-05 s⁻¹, respectively.

B4: 17D2 (scFv, V domains shown)
VH: QVQLVQSGAEVKKPGSSVKVSCKASGYTFTDHIIHWMRQAPGQGLEWMGYIYPREGWTNYNENFKGRVTITADKSTSTAYMELSSLRSEDTAVYYCARERNLEYFDYWGQGTTVTVSS
VL: DIVLTQSPASLAVSPGQRATITCKASQSVDFEGDNYMNWYQQKPGQPPKLLIYATSNLDSGVPARFSGSGSGTDFTLTINPVEAEDTANYYCQQSVEDPHTFGGGTKVEIK
notes: Combination mutant scFv
B4: the values for the koff in assay [1] and in assay [2] were 0.0019 s⁻¹ and 1.89e-05 s⁻¹, respectively.

B5: 16C2 (scFv, V domains shown)
VH: QVQLVQSGAEVKKPGSSVKVSCKASGYTFTDHIIHWMRQAPGQGLEWMGYIYPREGWTNYNENFKGRVTITADKSTSTAYMELSSLRSEDTAVYYCARERNLEYFDYWGQGTTVTVSS
VL: DIVLTQSPASLAVSPGQRATITCKASQSVDYEGFNYMNWYQQKPGQPPKLLIYATSNLDSGVPARFSGSGSGTDFTLTINPVEAEDTANYYCQQSVEDPHTFGGGTKVEIK
notes: Combination mutant scFv
Consider B5, for which the koff came out at 0.00176 s⁻¹ in assay [1] and 2.58e-05 s⁻¹ in assay [2].

B6: 18D3 (scFv, V domains shown)
VH: QVQLVQSGAEVKKPGSSVKVSCKASGYTFTDHIIHWMRQAPGQGLEWMGYIYPREGWTNYNENFKGRVTITADKSTSTAYMELSSLRSEDTAVYYCARERNLEYFDYWGQGTTVTVSS
VL: DIVLTQSPASLAVSPGQRATITCKASQSVDYEGDNYMNWYQQKPGQPPKLLIYATSNLDSGVPARFSGSGSGTDFTLTINPVEAEDTANYYCQQSVEDPHTFGGGTKVEIK
notes: Combination mutant scFv
In the case of B6, the koff in assay [1] worked out at 0.00418 s⁻¹; in assay [2], 2.98e-05 s⁻¹.

B7: 11A11 (scFv, V domains shown)
VH: QVQLVQSGAEVKKPGSSVKVSCKASGYTFTDHIIHWMRQAPGQGLEWMGYIYPREGWTNYNENFKGRVTITADKSTSTAYMELSSLRSEDTAVYYCARERNLEYFDYWGQGTTVTVSS
VL: DIVLTQSPASLAVSPGQRATITCKASQSVDFEGFNYMNWYQQKPGQPPKLLIYATSNLDSGVPARFSGSGSGTDFTLTINPVEAEDTANYYCQQSVEDPHTFGGGTKVEIK
notes: Combination mutant scFv
Take B7: the koff in assay [1] is 0.000786 s⁻¹; in assay [2], below 1e-05 s⁻¹.

B8: 8C1 (scFv, V domains shown)
VH: QVQLVQSGAEVKKPGSSVKVSCKASGYTFTDHIIHWMRQAPGQGLEWMGYIYPREGWTNYNENFKGRVTITADKSTSTAYMELSSLRSEDTAVYYCARERNLEYFDYWGQGTTVTVSS
VL: DIVLTQSPASLAVSPGQRATITCKASQSVDFEGFNYMNWYQQKPGQPPKLLIYAASNLDSGVPARFSGSGSGTDFTLTINPVEAEDTANYYCQQSLEDPHTFGGGTKVEIK
notes: Combination mutant scFv
Regarding B8, the koff in assay [1] is 0.000481 s⁻¹; in assay [2], below 1e-05 s⁻¹.

B9: 13B9 (scFv, V domains shown)
VH: QVQLVQSGAEVKKPGSSVKVSCKASGYTFTDHIIHWMRQAPGQGLEWMGYIYPREGWTNYNENFKGRVTITADKSTSTAYMELSSLRSEDTAVYYCARERNLEYFDYWGQGTTVTVSS
VL: DIVLTQSPASLAVSPGQRATITCKASQSVDFEGFNYMNWYQQKPGQPPKLLIYAASNLDSGVPARFSGSGSGTDFTLTINPVEAEDTANYYCQQSNEDPHTFGGGTKVEIK
notes: Combination mutant scFv
On to B9, for which the values for the koff in assay [1] and in assay [2] were 0.000327 s⁻¹ and 2.2e-05 s⁻¹, respectively. Moreover, the “EC50 (read off the curve)” value in assay [3] was around 10 nM.

B10: 19D2 (scFv, V domains shown)
VH: QVQLVQSGAEVKKPGSSVKVSCKASGYTFTDHIIHWMRQAPGQGLEWMGYIYPREGWTNYNENFKGRVTITADKSTSTAYMELSSLRSEDTAVYYCARERNLEYFDYWGQGTTVTVSS
VL: DIVLTQSPASLAVSPGQRATITCKASQSVDFEGDNYMNWYQQKPGQPPKLLIYATSNLDSGVPARFSGSGSGTDFTLTINPVEAEDTANYYCQQSLEDPHTFGGGTKVEIK
notes: Combination mutant scFv
On to B10, for which the koff in assay [1] was 0.00102 s⁻¹; in assay [2], below 1e-05 s⁻¹.

B11: 16D10 scFv (scFv, V domains shown)
VH: QVQLVQSGAEVKKPGSSVKVSCKASGYTFTDHIIHWMRQAPGQGLEWMGYIYPREGWTNYNENFKGRVTITADKSTSTAYMELSSLRSEDTAVYYCARERNLEYFDYWGQGTTVTVSS
VL: DIVLTQSPASLAVSPGQRATITCKASQSVDYEGFNYMNWYQQKPGQPPKLLIYAASNLDSGVPARFSGSGSGTDFTLTINPVEAEDTANYYCQQSNEDPYTFGGGTKVEIK
For B11, the koff is 0.000465 s⁻¹ in assay [1] and 2.34e-05 s⁻¹ in assay [2]. The “EC50 (read off the curve)” value in assay [3] is around 20 nM.

B12: 8H8 (scFv, V domains shown)
VH: QVQLVQSGAEVKKPGSSVKVSCKASGYTFTDHIIHWMRQAPGQGLEWMGYIYPREGWTNYNENFKGRVTITADKSTSTAYMELSSLRSEDTAVYYCARERNLEYFDYWGQGTTVTVSS
VL: DIVLTQSPASLAVSPGQRATITCKASQSVDYEGFNYMNWYQQKPGQPPKLLIYATSNLDSGVPARFSGSGSGTDFTLTINPVEAEDTANYYCQQSLEDPHTFGGGTKVEIK
notes: Combination mutant scFv
Turning to B12, the koff in assay [1] came to 0.000927 s⁻¹; in assay [2], 2.69e-05 s⁻¹.

B13: 2H8E10 (scFv, V domains shown)
VH: QVQLVQSGAEVKKPGSSVKVSCKASGYTFTDHIIHWMRQAPGQGLEWMGYIYPREGWTNYNENFKGRVTITADKSTSTAYMELSSLRSEDTAVYYCARERNLEYFDYWGQGTTVTVSS
VL: DIVLTQSPASLAVSPGQRATITCKASQSVDYEGDNYMNWYQQKPGQPPKLLIYAASNLDSGVPARFSGSGSGTDFTLTINPVEAEDTANYYCQQSNEDPHTFGGGTKVEIK
notes: Combination mutant scFv
Regarding B13, the koff in assay [1] turned out to be 0.00258 s⁻¹; in assay [2], 1.82e-05 s⁻¹.

B14: 5G11 (scFv, V domains shown)
VH: QVQLVQSGAEVKKPGSSVKVSCKASGYTFTDHIIHWMRQAPGQGLEWMGYIYPREGWTNYNENFKGRVTITADKSTSTAYMELSSLRSEDTAVYYCARERNLEYFDYWGQGTTVTVSS
VL: DIVLTQSPASLAVSPGQRATITCKASQSVDYEGFNYMNWYQQKPGQPPKLLIYAASNLDSGVPARFSGSGSGTDFTLTINPVEAEDTANYYCQQSLEDPHTFGGGTKVEIK
notes: Combination mutant scFv
On to B14, for which the koff is 0.000279 s⁻¹ in assay [1] and below 1e-05 s⁻¹ in assay [2].
